# In US20240092884A1 (CHILDREN S HOSPITAL OF FUDAN UNIVERSITY, published 2024):
# B1: anti-ANGPTL3 monoclonal antibody (prepared in Example 2) (antibody, IgG1, V domains shown)
# VH: QVQLKESGPGLVAPSQSLSITCTVSGFSLTTYGVSWVRQPPGKGLEWLGVIWGDGNTNYHSALISRLSISKDNSKSQVFLKLNSLQTDDTATYYCAKGGPYGNYVPFDYWGQGTTLTVSS
# VL: DIVLTQSPASLAVSLGQRATISCRASESVDSYGNSFMHWYQQKPGQPPKLLIYRASNLESGIPARFSGSGSRTDFTLTINPVEADDVATYYCQQSDEEPPTFGGGTNLEIK
# notes: Recombinant antibody expressed transiently in ExpiCHO-S cells; also called anti-ANGPTL3-FLD mAb; mAb
# B2: ANGPTL3-FLD-biotin (ligand)
# chain: RIDQDNSSFDSLSPEPKSRFAMLDDVKILANGLLQLGHGLKDFVHKTKGQINDIFQKLNIFDQSFYDLSLQTSEIKEEEKELRRTTYKLQVKNEEVKNMSLELNSKLESLLEEKILLQQKVKYLEEQLTNLIQNQPETPEHPEVTSLKTFVEKQDNSIKDLLQTVEDQYKQLNQQHSQIKEIENQLRRTSIQEPTEISLSSKPRAPRTTPFLQLNEIRNVKHDGIPAECTTIYNRGEHTSGMYAIRPSNSQVFHVYCDVISGSPWTLIQHRIDGSQNFNETWENYKYGFGRLDGEFWLGLEKIYSIVKQSNYVLRIELEDWKDNKHYIEYSFYLGNHETNYTLHLVAITGNVPNAIPENKDLVFSTWDHKAKGHFNCPEGYSGGWWWHDECGENNLNGKYNKPRAKSKPERRRGLSWKSQNGRLYSIKSTKMLIHPTDSESFEHHHHHHHHHH
# modifications: biotin-labeled (sites not given)
# notes: also called ANGPTL3-Biotin; Biotin-ANGPTL3-FLD
# Assays:
# [1] = target: human ANGPTL3 protein (SEQ ID No. 19) (human) (UniProt Q9Y5C1); assay: indirect ELISA, negative control supernatant, column A (taken as plate-coated ANGPTL3 of SEQ ID No. 19)
# [2] = target: T1, human ANGPTL3 protein (SEQ ID No. 19) (human, UniProt Q9Y5C1 18-460, limits assumed); assay: SPR, Biacore T200, ANGPTL3 amine-coupled on a CM5 chip (852 RU), antibody injected at 6.25-800 nM, 25 °C, HBS-EP
# T1 construct: also called ANGPTL3-FLD; protein (immunogen)
# T1 sequence: B2 chain
# Protocol: Angptl3 was immobilized on a CM5 sensor chip (Biacore T200, BR18010468 (GE Healthercare)) at 25° C. with HBS-EP as a running buffer (10 mM HEPES, 150 mM NaCl, 3 mM EDTA, 0.05% P20, pH 7.4). Flow cells 1 and 4 were activated on the surface of the sensor chip with fresh and mixed NHS (50 mmol/L) and EDC (200 mmol/L) for 420 s (10 μL/min). Then, Angptl3 diluted in 10 mmol/L NaAC (pH 5.0) waccording tojected into the flow cell 4 to achieve binding of about 852 Response Unit. In addition, Fc1 was set to blank. After the amine coupling reaction, 1 mol/L ethanolamine hydrochloride (pH 8.5) waccording tojected for 420 s to block the remaining active coupling sites on the chip surface.
# The detection was carried out at 25° C. with HBS-EP as a running buffer. The anti-ANGPTL3 monoclonal antibody (prepared in Example 2) waccording tojected onto the surfaces of flow cells 1, 2, 3, and 4 as an association stage, and then the running buffer waccording tojected as a dissociation stage.
# All data were processed using Biacore T200 evaluation software version 3.1. The flow cell 1 was used as a double reference for the subtractive response unit. For the detection results of the affinity of the anti-ANGPTL3 antibody to the ANGPTL3 protein, refer to FIG. 2.
# [3] = target: B2; assay: competitive ELISA: antibody titrated in 0.16 µg/mL ANGPTL3-FLD-biotin, blocking its binding to plate-coated integrin αvβ3
# Description: (§1) Integrin αvβ3 is a key receptor for ANGPTL3-FLD to act on podocytes and mediate podocyte damage. Therefore, in order to evaluate the biological activity of the anti-ANGPTL3 monoclonal antibody, a competitive ELISA experiment was designed to evaluate the activity of the anti-ANGPTL3 monoclonal antibody blocking the interaction between ANGPTL3-FLD and integrin αvβ3. In the competitive experiment of the anti-ANGPTL3 monoclonal antibody blocking the interaction between ANGPTL3-FLD and integrin αvβ3, ANGPTL3-FLD was biotin-labeled, and the lowest saturated concentration of ANGPTL3-FLD-biotin binding to integrin αvβ3 was determined as 0.16 μg/mL by ELISA (as shown in FIG. 3A). The anti-ANGPTL3 monoclonal antibody was serially diluted with 0.16 μg/mL ANGPTL3-FLD-biotin solution as a diluent to obtain a series of concentrations. Theoretically, ANGPTL3-FLD-biotin can saturate integrin αvβ3 on a solid support in the absence of monoclonal antibody. However, when the epitope of ANGPTL3-FLD recognized by the monoclonal antibody overlaps with the epitope of ANGPTL3-FLD binding to integrin αvβ3, the antibody may compete with integrin αvβ3 for binding to ANGPTL3-FLD-biotin, so that ANGPTL3-FLD-biotin cannot bind to integrin αvβ3 on the solid support.
# 2. Detect a Half-Maximal Inhibitory Concentration of Anti-ANGPTL3-FLD mAb [0098] […]
# [4] = target: T2, Integrin αvβ3 recombinant protein (R&D, 3050-AV-050) (UniProt P06756 31-992; P05106 27-718); assay: ELISA: integrin αvβ3 coated at 1 µg/mL, ANGPTL3-FLD-biotin titrated, detected with peroxidase-labeled streptavidin, OD450
# T2 construct: Bought heterodimer
# Description: as §1, with “Therefore,” for “Integrin αvβ3 is a key receptor for ANGPTL3-FLD to act on podocytes and mediate podocyte damage. Therefore,”
# 1. Plot a Curve of the Binding of Integrin αvβ3/ANGPTL3 [0093] […]
# T2 sequence (P06756 31-992, chain 1 of 2): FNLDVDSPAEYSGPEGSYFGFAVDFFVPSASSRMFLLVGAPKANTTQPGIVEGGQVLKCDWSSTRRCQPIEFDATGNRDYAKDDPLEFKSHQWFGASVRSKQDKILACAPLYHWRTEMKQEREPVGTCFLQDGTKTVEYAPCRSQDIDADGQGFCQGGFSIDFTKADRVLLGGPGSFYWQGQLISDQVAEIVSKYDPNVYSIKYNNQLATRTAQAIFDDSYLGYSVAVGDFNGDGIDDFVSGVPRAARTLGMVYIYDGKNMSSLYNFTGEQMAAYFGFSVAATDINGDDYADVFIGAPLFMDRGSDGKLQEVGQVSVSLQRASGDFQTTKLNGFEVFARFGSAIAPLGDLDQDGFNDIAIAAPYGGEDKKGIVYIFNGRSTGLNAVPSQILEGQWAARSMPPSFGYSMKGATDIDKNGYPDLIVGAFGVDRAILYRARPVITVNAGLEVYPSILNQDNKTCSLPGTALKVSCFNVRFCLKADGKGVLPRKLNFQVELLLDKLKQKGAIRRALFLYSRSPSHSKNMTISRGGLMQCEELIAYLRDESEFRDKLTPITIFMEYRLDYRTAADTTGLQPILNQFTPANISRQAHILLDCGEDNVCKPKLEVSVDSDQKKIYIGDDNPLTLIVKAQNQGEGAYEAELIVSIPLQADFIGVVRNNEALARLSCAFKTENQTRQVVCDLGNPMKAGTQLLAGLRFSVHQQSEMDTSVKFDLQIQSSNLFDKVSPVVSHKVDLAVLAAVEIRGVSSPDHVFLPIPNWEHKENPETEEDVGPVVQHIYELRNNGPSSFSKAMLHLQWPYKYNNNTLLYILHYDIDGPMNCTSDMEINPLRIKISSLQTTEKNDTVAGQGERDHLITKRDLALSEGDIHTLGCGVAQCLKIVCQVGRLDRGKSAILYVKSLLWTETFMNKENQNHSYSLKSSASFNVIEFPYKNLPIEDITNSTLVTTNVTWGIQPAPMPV
# T2 sequence (P05106 27-718, chain 2 of 2): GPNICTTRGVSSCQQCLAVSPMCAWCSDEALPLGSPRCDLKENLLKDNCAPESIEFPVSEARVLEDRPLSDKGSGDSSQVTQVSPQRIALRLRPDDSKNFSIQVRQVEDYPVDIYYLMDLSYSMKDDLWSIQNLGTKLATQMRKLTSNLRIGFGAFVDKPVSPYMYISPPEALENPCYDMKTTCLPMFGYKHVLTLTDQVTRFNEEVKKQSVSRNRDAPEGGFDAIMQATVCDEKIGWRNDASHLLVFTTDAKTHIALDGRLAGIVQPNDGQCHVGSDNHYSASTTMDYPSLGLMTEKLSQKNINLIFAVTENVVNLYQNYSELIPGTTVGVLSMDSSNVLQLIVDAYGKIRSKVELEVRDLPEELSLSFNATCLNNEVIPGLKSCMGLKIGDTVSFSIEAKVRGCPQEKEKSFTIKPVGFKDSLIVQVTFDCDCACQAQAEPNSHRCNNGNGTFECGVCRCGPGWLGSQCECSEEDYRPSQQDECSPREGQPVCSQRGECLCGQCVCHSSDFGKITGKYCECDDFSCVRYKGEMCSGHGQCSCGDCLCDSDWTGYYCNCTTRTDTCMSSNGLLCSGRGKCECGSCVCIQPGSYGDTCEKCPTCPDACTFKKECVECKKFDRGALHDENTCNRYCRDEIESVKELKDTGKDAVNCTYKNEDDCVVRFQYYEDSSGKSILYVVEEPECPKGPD
molecule,measurement,setting,value
Negative Control Supernatant,OD 450,[1],0.195 OD450
B1,Kd,[2],84.8 nM
same,koff,[2],0.00142 s⁻¹
same,kon,[2],16700 M⁻¹ s⁻¹
same,EC50,[3],1.57 µg/mL
B2,EC50 (read off the curve),[4],~0.01 µg/mL
